{
  "source": "patent US20240425575A1",
  "key": {"[1]": {"target": "human ANG2 protein (623-AN-025/CF, R&D) (human) (UniProt O15123)", "sequence (O15123 19-496 limits assumed)": "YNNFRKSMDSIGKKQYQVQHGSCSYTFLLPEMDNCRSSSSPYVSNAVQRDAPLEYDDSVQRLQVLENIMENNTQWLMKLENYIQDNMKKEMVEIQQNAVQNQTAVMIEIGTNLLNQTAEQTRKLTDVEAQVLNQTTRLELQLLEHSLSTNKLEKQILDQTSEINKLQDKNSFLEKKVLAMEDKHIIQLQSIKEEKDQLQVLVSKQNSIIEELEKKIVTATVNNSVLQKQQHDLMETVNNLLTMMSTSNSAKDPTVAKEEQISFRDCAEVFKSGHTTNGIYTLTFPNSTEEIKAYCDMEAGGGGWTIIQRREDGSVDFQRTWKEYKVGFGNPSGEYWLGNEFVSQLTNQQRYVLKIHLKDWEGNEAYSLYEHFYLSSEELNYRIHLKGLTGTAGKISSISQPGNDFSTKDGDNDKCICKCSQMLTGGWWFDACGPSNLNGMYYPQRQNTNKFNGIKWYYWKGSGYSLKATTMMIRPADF", "assay": "flow cytometry, inhibition of human ANG2 (10 µg/mL) binding to HUVEC cells"}, "[2]": {"target": "human ANG2 protein (623-AN-025/CF, R&D) (human) (UniProt O15123)", "assay": "cell-based or functional assay"}},
  "data": [
    {"substance": "RG7716 (ATAD00534, Atagenix) (bispecific antibody)", "values": [
      {"measurement": "IC50", "setting": "[1]", "result": 0.0539, "unit": "µM"},
      {"measurement": "IC50 of inhibition of AKT phosphorylation of human ANG2-dependent HUVEC cells", "setting": "[2]", "result": 0.0273, "unit": "µM"}
    ]}
  ]
}
